Results reported in patent publication US20250243261A1.
Where a chain is given by its changes, count along the chain named. In names and notes the source's numbering stands.

B1: mAb114 VH D42G-A68T-S79Y IgG (antibody, V domains shown)
VH: EVQLVESGGGLIQPGGSLRLSCAASGFALRMYDMHWVRQTIGKRLEWVSAVGPSGDTYYADSVKGRFTVSRENAKNSLYLQMNSLTAGDTAIYYCVRSDRGVAGLFDSWGQGILVTVSS
VL: DIQMTQSPSSLSASVGDRITITCRASQAFDNYVAWYQQRPGKVPKLLISAASALHAGVPSRFSGSGSGTHFTLTISSLQPEDVATYYCQNYNSAPLTFGGGTKVEIK
B2: mAb114 VH I41P-D42G-A68T-S79Y-I113T IgG (antibody, V domains shown)
VH: B1 VH with I41P, I113T
VL: B1 VL
B3: mAb114 VH I41P-D42G-A68T-S79Y-I113T / VL V43A IgG (antibody, V domains shown)
VH: B1 VH with I41P, I113T
VL: B1 VL with V43A
B4: mAb114 VH A68T-I113T / VL V43A IgG (antibody, V domains shown)
VH: B1 VH with G42D, Y79S, I113T
VL: B1 VL with V43A
B5: mAb114 VH A68T-E72D-S79Y-I113T / VL V43A IgG (antibody, V domains shown)
VH: B1 VH with G42D, E72D, I113T
VL: B1 VL with V43A
B6: MEDI8852 UCA VH V65P/VL G95P IgG (antibody, V domains shown)
VH: QVQLQQSGPGLVKPSQTLSLTCAISGDSVSSNSAAWNWIRQSPSRGLEWLGRTYYRSKWYNDYAPSVKSRITINPDTSKNQFSLQLNSVTPEDTAVYYCARGGHITIFGVNIDAFDIWGQGTMVTVSS
VL: DIQMTQSPSSLSASVGDRVTITCRASQSISSYLNWYQQKPGKAPKLLIYAASSLQSGVPSRFSGSGSGTDFTLTISSLQPEDFATYYCQQSRTFPQGTKVEIK

biological target: full-length Ebola GP on pseudotyped lentivirus (Zaire ebolavirus) (UniProt Q05320); assay: cell-based or functional assay

Q: With B1 as the binder, how does the Ebola GP pseudotyped lentivirus IC50 read?
A: 1.2 nM

Q: Which Ebola GP pseudotyped lentivirus IC50 does the source give for B2 here?
A: 1.2 nM

Q: B3 was tested. Which Ebola GP pseudotyped lentivirus IC50 did it give?
A: 1 nM

Q: For B4, which Ebola GP pseudotyped lentivirus IC50 is on record?
A: 1.1 nM

Q: How did the Ebola GP pseudotyped lentivirus IC50 turn out when B5 was run?
A: 1.2 nM

biological target: HA H4 Hubei, A/swine/Hubei/06/2009(H4N1) (Influenza A virus); assay: not given

Q: B6 was tested. Which Kd did it give?
A: 100 nM
